Results published in patent US20260297188 (published 2026).

B1: ch5-13 (antibody, V domains shown)
VH: QSVEESGGRLVTPGTPLTLTCTVSGFSLSSYHMSWVRQAPGKGLEWIGYILANTDSYYANWAKGRFTISKTSTTVDLKITSPTTEDTATYFCARYDNHDAAYSTLWGPGTLVTVSS
VL: AYDMTQTPASVEVAVGGTVTIKCQASQSISTALAWYQQKPGQPPKLLIYKASTLASGVSSRFKGSGSGTQFTLTISGVEPADAATYYCQQGYSRSNVDNVFGGGTEVVVK
B2: ch3-7 (antibody, V domains shown)
VH: QSLEESGGRLVTPGTPLTLTCTVSGFSPSSYYMSWVRQAPGKGLEYIGIIFSGGSTWYASWAKGRVTISRTSTTVDLKMTSLTTEDTATYFCARGDAVGSGYWGLWGPGTLVTVSS
VL: AFELTQTPSSVEAAVGGTVTINCQASQDIYIYLAWYQQKPGQPPKLLIYSASTLASGVSSRFTGSRSGTQFTLTISDLEPADAATYYCQSYDGTSNTGFGGGTEVVVR
B3: ch6-1 (antibody, V domains shown)
VH: QSLEESGGGLVQPEGSLTLTCTASGFSFSSSAWICWVRQAPGKGLEWIGCINTVSVNAYYASWAKGRFTISKTSSTTVTLQVTSLTAADTATHFCARNPYNSLRLWGPGTLVTVSS
VL: DVVMTQTPASVSEPVGGTITINCQASENIYSSLAWYQQKPGQPPKLLMYDVSDLASGVPSRFSGSGSGTEFALTISDVQPDDAATYFCLGGYPSNNYRMAFGGGTEVVVK
B4: IP-46-3 (antibody, V domains shown)
VH: EVQLQQSGPELVKPGASVKISCKTSGYTFTEYTMHWVKQSHGKSLEWIGGISPNIGGTSYNQKFKGKATLTVDKSSSTAYMELRSLTSEDSAVYYCARRGGSFDYWGQGTTLTVSS
VL: DIVMTQSPATLSVTPGDRVSLSCRASQSISDYLHWYQQKSHESPRLLIKYASQSISGIPSRFSGSGSGSDFTLSINSVEPEDVGVYYCQNGHSFPLTFGAGTKLELK

Target: T1, human NKp46 ECD (human)
T1 chain: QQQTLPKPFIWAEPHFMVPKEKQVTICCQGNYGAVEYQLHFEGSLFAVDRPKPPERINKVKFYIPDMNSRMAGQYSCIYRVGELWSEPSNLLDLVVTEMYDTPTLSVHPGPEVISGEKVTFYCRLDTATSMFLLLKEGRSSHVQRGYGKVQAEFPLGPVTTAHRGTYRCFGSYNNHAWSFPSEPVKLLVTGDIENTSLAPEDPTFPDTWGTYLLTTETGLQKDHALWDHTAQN
Test: SPR, 25C

Going from B1 to B2, the Kd falls from 0.194 nM to 0.0199 nM (9.7-fold). The second binds more tightly here.

Compared with B3, B4 is 17-fold higher in Kd: 0.0209 nM for the first, 0.361 nM for the second.
